This passage reports Km and kcat results from publication PMC10638201, “Application of electrospun chitosan-based nanofibers as immobilization matrix for biomolecules” (Applied Microbiology and Biotechnology, 2023).

Substrate in the series: COc1cc(CO)ccc1O
Put plainly: purified protein. Format: biochemical, Rhodococcus jostii. Conditions: free EUGO, O2 as co-substrate (air), ambient conditions, 50 mM Glycine·NaOH buffer, pH 8.0, N = 1, called preliminary.

As a reminder, the Km is the substrate concentration at which the rate is half of its maximum. What is called kcat is the number of substrate molecules converted per active site and unit of time at saturation.

B1: eugenol oxidase (EUGO); 6xHis-eugenol-oxidase-StrepTag-II (Rhodococcus jostii RHA1) (protein)
chain: MTRTLPPGVSDERFDAALQRFRDVVGDKWVLSTADELEAFRDPYPVGAAEANLPSAVVSPESTEQVQDIVRIANEYGIPLSPVSTGKNNGYGGAAPRLSGSVIVKTGERMNRILEVNEKYGYALLEPGVTYFDLYEYLQSHDSGLMLDCPDLGWGSVVGNTLDRGVGYTPYGDHFMWQTGLEVVLPQGEVMRTGMGALPGSDAWQLFPYGFGPFPDGMFTQSNLGIVTKMGIALMQRPPASQSFLITFDKEEDLEQIVDIMLPLRINMAPLQNVPVLRNIFMDAAAVSKRTEWFDGDGPMPAEAIERMKKDLDLGFWNFYGTLYGPPPLIEMYYGMIKEAFGKIPGARFFTHEERDDRGGHVLQDRHKINNGIPSLDELQLLDWVPNGGHIGFSPVSAPDGREAMKQFEMVRNRANEYNKDYAAQFIIGLREMHHVCLFIYDTAIPEAREEILQMTKVLVREAAEAGYGEYRTHNALMDDVMATFNWGDGALLKFHEKIKDALDPNGIIAPGKSGIWSQRFRGQNL
notes: N-terminal His6 tag and C-terminal Strep-tag II, tags kept; gene from vector pEUGOA cloned into pET-28a(+) (pET-28-eugo-STII); E. coli BL21 (DE3) gold; Ni Sepharose purified; dimer, theoretical 124 kDa
Consider B1, for which the Km is 80 ± 20 µM and the kcat amounted to 5 ± 1 s⁻¹.
